Data set [1] deals with T1, PHD2 (prolyl-hydroxylase domain, residues 181–426) (Homo sapiens, UniProt Q9GZT9).
T1 construct: encodes for His6-PHD2 (prolyl-hydroxylase domain, residues 181–426); His6 (N, cleaved yes); made in house; host or cells: E. coli BL21(DE3)
Put plainly: Aggregation of PHD2 by HIF2α-CODD peptides in MST experiments (MST time traces). The note with it: peptide dilution series with PHD2, room temperature. The class given is physicochemical. As for the experimental part:
MST measurements were taken using a Monolith NT.115 (Nanotemper Technologies) at room temperature using standard MST capillaries (Nanotemper Technologies). A 2x stock of PHD2-647 was created by diluting PHD2-647 from a 10 µM stock to 50 nM with MST Buffer (50 mM Tris–HCl pH 7.5, 1 mM NOG, 10 µM FeSO4, 5 mg/ml BSA). For each HIFα-CODD peptide, ~1 mg dry weight of peptide was dissolved in 200 µl of 50 mM Tris–HCl pH 8.0 and concentrations were measured using UV absorbance at 280 nm for most peptides and BCA assay (Thermo Scientific) for Y532C and Y532H peptides using known concentrations of the WT HIF2α-CODD peptide to create a standard curve. The UV absorbance extinction coefficients for all HIF1α-CODD and HIF2α-CODD peptides used in this study is 1490 M^−1 cm^−1 except for HIF2α-CODD D539Y (2980 M^−1 cm^−1), HIF2α-CODD G537W (6990 M^−1 cm^−1) and HIF2α-CODD Y532C and Y532H which were not analyzed via absorbance at 280 nm due to the lack of any Tyrosine or Tryptophan residues in the peptides. For each experiment, 16 different concentrations of 15 µl peptide solution were created by 2-fold serial dilution of the peptide stock in 50 mM Tris–HCl pH 8.0. Each of the 16 peptide solutions was then mixed with an equal volume (15 µl) of 2× PHD2-647 solution resulting in a final 1× concentration of PHD2-647 at 25 nM. […] MST measurements were taken at 20% fluorescence excitation LED power and 40% (medium) infrared laser power. For each MST time trace initial fluorescence (pre-infrared laser activation) was recorded for 5 s, infrared laser on time was 20 s, and fluorescence post-infrared laser deactivation was recorded for 3 s. MST data was analyzed using the M.O. Affinity Analysis software (Nanotemper Technologies) and the 1:1 Kd binding model was fit to experimental data. […]
(also on this page, place not known: Relative Fluorescence Relative Fluorescence -10 30 Relative Fluorescence -10 30 Relative Fluorescence -10 30 Relative Fluorescence -10 30 Relative Fluorescence aggrega?on, (f) curves HIF2α-CODD)

Data set [2] addresses T1, PHD2 (prolyl-hydroxylase domain, residues 181–426). In words: Microscale thermophoresis (MST) binding of HIFα-CODD peptides to the catalytic domain of PHD2. The note with it: for Binding to PHD2 (in words): 25 nM PHD2-647, with NOG, room temperature; for Kd (MST-determined PHD2/HIFα-CODD complex dissociation constant): 25 nM Alexa 647-labeled PHD2, Tris–HCl with NOG (1 mM NOG, 10 µM FeSO4, 5 mg/ml BSA in 2x MST Buffer pH 7.5), peptide in Tris pH 8.0, room temperature, 10 min incubation, 1:1 Kd model, triplicate measurements, highest concentration omitted for Y532H and P531A (aggregation). The protocol:
To determine if there is a direct effect of HIF2α mutations on PHD2 binding, we devised a quantitative method for determining the dissociation constant (Kd) of the HIF2α-CODD peptides and the catalytic domain of PHD2 using microscale thermophoresis (MST)[13],[14] in the presence of the PHD inhibitor n-oxalylglycine (NOG) to inhibit reaction turnover.
PHD2 was purified via a previously described but modified procedure[4],[30]. […] Cells were grown to an OD600 of 0.8 at 37 °C and expression of His6-PHD2 was induced with a final concentration of 0.5 mM IPTG. Cells were grown for an additional 3 h post-induction at 37 °C and harvested via centrifugation. Cell pellets were either used immediately for purification or stored at −80 °C for later use. Cell pellets were resuspended in Lysis Buffer (50 mM Tris–HCl pH 7.9, 500 mM NaCl, 5 mM Imidazole) containing 1x SigmaFast protease inhibitor cocktail (Sigma-Aldrich) and lysed with 3 passes through an Emulsiflex-C3 cell disruptor (Avestin) at 20-30 kPSI. […] Clarified lysates were applied to a 2 ml Ni-NTA (Thermo Scientific) column pre-equilibrated with Lysis Buffer. The beads were washed with 10 ml Lysis buffer and 2 × 30 ml of Wash Buffer (50 mM Tris–HCl pH 7.9, 500 mM NaCl, 30 mM Imidazole). His6-PHD2 was eluted by applying 10 ml Elution Buffer (50 mM Tris–HCl pH 7.9, 500 mM NaCl, 1 M Imidazole) to the column. Ni-NTA purified His6-PHD2 was dialyzed using a 10 kDa cut-off dialysis membrane against 2 L of Dialysis Buffer (50 mM Tris–HCl pH 7.5) for 4 h at 4 °C. […] Dialysis and thrombin cleavage were allowed to continue overnight at 4 °C. Thrombin-cleaved PHD2 was collected and applied to a 2 ml Ni-NTA column pre-equilibrated with Dialysis Buffer to remove uncleaved protein and cleaved His6 tags. The flow-through was collected and the beads were washed with 10 ml of Dialysis Buffer supplemented with 5 mM imidazole. The 5 mM imidazole eluate was pooled with the flow through and concentrated with an Amicon 10 kDa cut-off centrifugal concentrator (Millipore) to a volume of ~600 µl. The concentrated PHD2 was then applied to a Superdex 75 Increase 10/300 GL column (Cytiva) equilibrated with Dialysis Buffer or Labeling Buffer (50 mM HEPES pH 7.5, 150 mM NaCl) depending on the intended use of the sample. Eluted fractions containing PHD2 were collected and pooled. For the His6-PHD2 used in the indirect hydroxylation assay, no thrombin was added during dialysis steps therefore the His6-tag was not removed and the subsequent passage of the sample through Ni-NTA beads to remove His6-tags was not performed. Otherwise, the purification protocol for His6-PHD2 is the same as thrombin-cleaved PHD2. All purification steps were analyzed by SDS–PAGE and the Superdex 75 Increase chromatogram was used to assess size and aggregation, see Supplementary Fig. 5 for a representative purification assessment.
Labeling was conducted at room temperature for 1 h in the dark. Excess dye was then removed first by the passage of the sample through a PD-10 desalting column containing Sephadex G-25 resin (Cytiva) equilibrated with Dialysis Buffer and then any remaining excess dye was removed via repeated 10-fold dilution in Dialysis Buffer and subsequent concentration in an Amicon 10 kDa cut off centrifugal filter until the dye could no longer be detected in the concentrator flow through by Absorbance at 650 nm.
MST measurements were taken using a Monolith NT.115 (Nanotemper Technologies) at room temperature using standard MST capillaries (Nanotemper Technologies). […] For each HIFα-CODD peptide, ~1 mg dry weight of peptide was dissolved in 200 µl of 50 mM Tris–HCl pH 8.0 and concentrations were measured using UV absorbance at 280 nm for most peptides and BCA assay (Thermo Scientific) for Y532C and Y532H peptides using known concentrations of the WT HIF2α-CODD peptide to create a standard curve.
A general note: In MST a laser heats a spot of the sample, and binding alters the fluorescence response.

In a further data set the test system is pVHL. Particulars: prolyl-hydroxylated HIF2α peptides; cited from earlier work. From the text:
(§1) Pacak-Zhuang syndrome is a pseudohypoxic disease resulting from the inappropriate stabilization of HIF2α under normoxic conditions caused by gain-of-function missense mutations in the CODD region of HIF2α. These missense mutations stabilize HIF2α by ultimately inhibiting proteasome-mediated destruction of HIF2α[2],[6],[21]. Previously, we hypothesized that the mutations in the HIF2α-CODD region disrupted the pVHL/HIF2α interface. This appeared to be true for most Class 1 mutants examined to date.

The next data set relates to PHD. The note with it: cited from earlier work.
From the text: as §1

Data set [3] deals with Alexa 647 labeled PHD2 (catalytic / prolyl-hydroxylase domain, residues 181-426) (human) (UniProt Q9GZT9). Put plainly: MST; 25 nM Alexa 647 labeled PHD2, unlabeled peptide in 16 two-fold dilutions; room temperature; MST Buffer 50 mM Tris-HCl pH 7.5, 1 mM NOG, 10 µM FeSO4, 5 mg/ml BSA mixed 1:1 with peptide in 50 mM Tris-HCl pH 8.0; 1:1 Kd model; triplicate.
Data set [4] has as its target T2, Alexa 647 labeled PHD2 (catalytic / prolyl-hydroxylase domain, residues 181-426) (human, UniProt Q9GZT9 181-426, Alexa Fluor 647 N-hydroxysuccinimide ester dye, 1-2 dye molecules per protein molecule).
T2 construct: PHD2, prolyl-hydroxylase domain (catalytic domain), residues 181-426, from pET-46-HIS6-PHD2; Same construct as m2, dye-labeled for MST; also called PHD2-647; source: E. coli BL21(DE3), purified (Ni-NTA, thrombin cleavage, Superdex 75), labeled with Alexa Fluor 647 NHS ester
The data set is described as above. The note with it: both partners purified.

“Also recorded” adds a separate entry of the source. Square brackets hold non-standard residues; d marks the D form. Hyp = O=C(O)[C@@H]1C[C@@H](O)CN1

T1 sequence (Q9GZT9 181-426): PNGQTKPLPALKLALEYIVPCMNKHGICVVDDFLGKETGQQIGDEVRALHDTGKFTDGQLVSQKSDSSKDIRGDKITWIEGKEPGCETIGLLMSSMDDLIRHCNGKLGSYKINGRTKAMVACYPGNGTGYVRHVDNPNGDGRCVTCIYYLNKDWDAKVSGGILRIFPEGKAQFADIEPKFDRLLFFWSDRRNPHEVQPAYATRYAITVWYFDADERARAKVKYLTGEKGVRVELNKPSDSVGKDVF
T2 sequence (Q9GZT9 181-426): as above
Alexa 647 labeled PHD2 (catalytic / prolyl-hydroxylase domain, residues 181-426) (human), sequence (Q9GZT9 181-426): as above

With `CC[C@H](C)[C@H](NC(=O)[C@H](Cc1ccc(O)cc1)NC(=O)[C@@H]1CCCN1C(=O)[C@H](C)NC(=O)[C@H](CC(C)C)NC(=O)[C@@H](NC(=O)[C@H](CCC(=O)O)NC(=O)[C@H](CC(C)C)NC(=O)[C@H](CC(=O)O)NC(=O)[C@H](CC(C)C)NC(=O)[C@H](CCC(=O)O)NC(C)=O)[C@@H](C)O)C(=O)N1CCC[C@H]1C(=O)N[C@@H](CCSC)C(=O)N[C@@H](CC(=O)O)C(=O)NCC(=O)N[C@@H](CCC(=O)O)C(=O)N[C@@H](CC(=O)O)C(=O)N[C@@H](Cc1ccccc1)C(=O)N[C@@H](CCC(N)=O)C(=O)N[C@@H](CC(C)C)C(N)=O` [HIF2α WT], in data set [1], the “Aggregation of PHD2 in MST experiments” value was “no aggrega?on”. In data set [2] (MST), the “Binding to PHD2 (in words)” value was “showing binding”. In addition, the Kd in data set [2] (read-out: Kd (MST-determined PHD2/HIFα-CODD complex dissociation constant)) stood at 34 ± 2 µM.
Consider “HIF2α A530V: Class 1 mutant HIF2α-CODD peptide (Ac-ELDLETLVPYIPMDGEDFQL-NH2)”, for which, in data set [2] (MST, with NOG), the “PHD2 affinity / Kd compared with another peptide (in words)” value is “significant effect on PHD2 binding affinity; also recorded: more detrimental to the interaction than A530T”. For the same molecule, in data set [2] (MST), the “Kd (MST-determined PHD2/HIFα-CODD complex dissociation constant)” value is listed as “No binding”. Further, in data set [2] (MST, target WT-PHD2(181-426), TargetConcentration 2.5e-8, ligand HIF2a-CODD peptide, MST-Power Medium, Excitation-Power 20 Nano - RED, hot region 19 to 20, unit of Kd not printed (doses of the same sheet are in M), Fig. 1c source data), the “Kd (Fit Results, Fit Model Kd)” value is listed as 0.03648. Moreover, in the data set on pVHL, the “Binding affinity for pVHL (in words)” value is on record as “no effect on pVHL binding”. Moreover, the “PHD-mediated hydroxylation (in words)” value with PHD is reported as “appeared to decrease PHD-mediated hydroxylation”.
Turning to “HIF2α P531A: Class 1 mutant HIF2α-CODD peptide (Ac-ELDLETLAAYIPMDGEDFQL-NH2)”, the “Aggregation of PHD2 in MST experiments” value in data set [1] is “some evidence of aggrega?on at the highest concentra?on”. Moreover, the “Kd (MST-determined PHD2/HIFα-CODD complex dissociation constant)” value in data set [2] (MST) is on record as “No binding^a”.
In the case of “HIF2α WT-OH: synthetically hydroxylated WT HIF2α-CODD-OH peptide, negative control (Ac-ELDLETLA[Hyp]YIPMDGEDFQL-NH2; SMILES CC[C@H](C)[C@H](NC(=O)[C@H](Cc1ccc(O)cc1)NC(=O)[C@@H]1C[C@@H](O)CN1C(=O)[C@H](C)NC(=O)[C@H](CC(C)C)NC(=O)[C@@H](NC(=O)[C@H](CCC(=O)O)NC(=O)[C@H](CC(C)C)NC(=O)[C@H](CC(=O)O)NC(=O)[C@H](CC(C)C)NC(=O)[C@H](CCC(=O)O)NC(C)=O)[C@@H](C)O)C(=O)N1CCC[C@H]1C(=O)N[C@@H](CCSC)C(=O)N[C@@H](CC(=O)O)C(=O)NCC(=O)N[C@@H](CCC(=O)O)C(=O)N[C@@H](CC(=O)O)C(=O)N[C@@H](Cc1ccccc1)C(=O)N[C@@H](CCC(N)=O)C(=O)N[C@@H](CC(C)C)C(N)=O)”, the “Aggregation of PHD2 in MST experiments” value in data set [1] is on record as “no ag grega?on”. Moreover, the “Binding to PHD2 (in words)” value is on record as “did not bind to PHD2” in data set [2] (MST) and “no” in data set [2] (MST, listed as WT-OH HIF2α-CODD). The “Kd (MST-determined PHD2/HIFα-CODD complex dissociation constant)” value in data set [2] (MST) is recorded as “No Binding”.
Regarding “HIF2α-CODD WT peptide (from UniProt Q99814 523-542)”, the Kd in data set [3] was found to be 34 µM.

B1: HIF2α-CODD ΔG537 peptide (peptide, UniProt Q99814 523-542, looked up)
peptide: Ac-ELDLETLAPYIPMDEDFQL-NH2
notes: HIF2α (EPAS1) CODD peptide, human, as m3 without G537; also called HIF2α ΔG537; source: synthetic peptide (Genscript, ≥95% purity)
B1 returned a Kd in data set [4] of 13 ± 2 µM.
